Measured values as given in the DeepSol protein solubility set.

experiment: soluble on expression in E. coli; label from the status in PepcDB or PDB records

Which “soluble on expression in E. coli” value does the source give for “MMKLKVYADRMSQPSRAVIIFCKVNGIQFDEVLISLAKRQQLSPEFKDINPLGKVPAIVDGRLKLFESHAILIYLSSAFPSVADHWYPNDLSKRAKIHSVLDWHHTNLRRGAAGYVLNSVLGPALGLPLNPKAAAEAEQLLTKSLSTLETFWLKGNAKFLLGSNQPSIADLSLVCELMQLQVLDDKDRLRLLSTHKKVEQWIENTKKATMPHFDETHEILFKVKEGFQKRREMGTLSKPGLQSKI” here?
The value was “soluble”.

For “MMLHAQHMPGQPGTPSLVFLHGFSGDCHEWQPVGEQFHGCSRLYIDLPGHGGSAAIPVDGFADVIRLLRATLISYNILKFWLVGYSLGGRVAMMAACQGIPGLCGLVVEGGHPGLQNEQARAERRLSDGRWAERFRHEPLTEVFHDWYQQPVFASLTAQQRQALTALRSQNNGETLAAMLEATSLAVQPDLREALNALAFPFYYLCGERDSKFRALAQEVAATCHVIRNAGHNAHRENPAGVVDSLAQILRL”, which “soluble on expression in E. coli” value is on record?
Its value is “not soluble”.

Which “soluble on expression in E. coli” value does the source give for “MMMKSLLMTPLSHRVLKLFCRQTDQRFQKQKNALQQVQREKLQQILKISTLAQAAGVTDYEQFRQQFPVTRYTHWRDRIHECRAQQSTLSNSKLVRYQPTSGSSEQIKFIPYTQAFLDELDAAIAPWLSSMYRKCSTLGQGTHYWSVSWLPESQREVLKNENLNDDSALLGVGKRLLSKFTQTVPSDVSFAAHADDALFATLCYLVADQDLAMISVWSPTFALQLLEKLTEQSHEIALVLETGQWQTRAASLKGVKAPYNSARASLLRQLMKKDTLDYQQLWPKLSLVSSWDTAGSKQWAQLLQSELPFAQFEGKGLWATEGVVTIPYDDLYPLAYHSHFYEFEYLAGEHQGDIIPSWQLKLNDLVSPVLTSGNGLLRYCLDDCLRVTGFYGQVPCFEFQGRRFGVDLVGEKLSPEVAHKLLTRLNQQHIQAISLFAVDTQQQAKPFYAVLVEGEATSPLSVDEIDQALREHFHYELARDLGQLDQPQIFYVDNGWEGYKQVVVREGMIEGNIKPEPLKKVTLSSLEQLSCAESV” here?
Its value is “not soluble”.

For “MMNYELMTTQNAPVKMWTKGVPVEDDARQQLINTAKMPFIFKHIAVMPDVHLGKGSTIGSVIPTKGAIIPAAVGVDIGCGMNALRTSLTAADLPENLADLRSAIEAAVPHGRTTGRGHRDVGAWGNPPANVNEKWAQLEAGYQWLTQKYPRFLNTNNYKHLGTLGTGNHFIEICLDETDRVWIMLHSGSRGIGNAIGTYFIGLAQQEMQEQLETLPSRDLAYFNEGSEYFDDYLKAVHWAQQFASLNREAMMENALAALQRCVEKPSALDMDEINCHHNYVQKEQHFGEEIYVTRKGAVSARRGEFGIIPGSMGAKSFIVRGLGNEESFCSCSHGAGRVMSRTKAKKLFSVDDQIRATAHVECRKDADVIDEIPMAYKDIDAVMAAQSDLVEIMYALRQVVCVKGLEHHHHHH”, which “soluble on expression in E. coli” value is on record?
Its value is “not soluble”.

Which “soluble on expression in E. coli” value does the source give for “MMPAHETYDVIVVGAGAGGMTAAAVAAAEGLSVLVIEKTAFVGGTTAWSDGMVWIPANPKMKAAGLSDSVADAVQYLSSTVPEPANAGLRAAFLARGPEAVTYLEAKTEVRFLPVKTCPDYYPERLGATSGGRALEPVAFDGTRLGRAFARLRPPLPEFTLFGGMMVNRLDIPHLRRIGKSLRSTLRAARLVSEYMMQRLRSPRGTTLHLGNALAARLYASLLARQGEILFSADVEDLSMQGDRVSGVVIRHGSRDRAIAARRGVVLATGGFSHDAALRKRFFPPAAGFVSATSPSGTGDGLRLAATAGAALNTEATSPAYWVPASLFRRADGSRGVFPHTVTDRAKPGVIAVNAAGRRFVNEALSYHEFVLAMLRDGHGEPDRPFYLICDRQFLWSYGLGRIKPFTRNFRRYVASGELVEAPDITQLAAKIGIKPSVLTATIAAYNIDAKEGRDPEFGRGTTIYQRHLGDISHKPNPCVAPILRAPYFALRIYPADLGTAIGMKVDAQARVLRGDGTPIAGLYACGNDMGSIMNGNCPGPGITLGPALTFGYIAGRHLAEGGVTRELAKEQMLEHHHHHH” here?
The value was “not soluble”.

With “MMPLSTPDFASIRDTLLRDLQNLRADADIAPDSDYFVRASSVASAVEGLYQHQSWIARQIFPDTADSEYLEQHARLRGIVRKPAAAASGTLRISGNAGAVVSGSLQLRIGEQLYATPAANPDGSPYAARLDANGQAELPIFASQAGAAGNQPESLPVELMQAPSGVSAKALLLSMRNGVDVEDDAALLDRLLELIRRPPAGGNRHDYRRWAMEVKGVSAAYVYPLRRGLGTVDVVITANGDLPSQEILNNVQAHIEDLRPVTAKSCLVLAPTPRPVDIDVALNLGGANLDAFTPLLQQTLQAYFAGLAPGERLVKSRIEALISDLPGVQDRQLNSPAGNVDPVSDPTKVEWLRLGKLTVGLLKLEHHHHHH” as the sequence, how does the “soluble on expression in E. coli” value read?
The value was “soluble”.

With “MMQEETFYSVRMRASMNGSHEDGGKHISGGERLIPFHEMKHTVNALLEKGLSHSRGKPDFMQIQFEEVHESIKTIQPLPVHTNEVSCPEEGQKLARLLLEKEGVSRDVIEKAYEQIPEWSDVRGAVLFDIHTGKRMDQTKEKGVRVSRMDWPDANFEKWALHSHVPAHSRIKEALALASKVSRHPAVVAELCWSDDPDYITGYVAGKKMGYQRITAMKEYGTEEGCRVFFIDGSNDVNTYIHDLEKQPILIEWEEDHDS” as the sequence, how does the “soluble on expression in E. coli” value read?
Its value is “not soluble”.

With “MMQIRPVSDLRNKFSEIENIIISNKSPVFLTKNGHGSMVLMSLDMYESLTDNVENRLDEADFQAASTNVRLSHKDVFSDIRSKI” as the sequence, how does the “soluble on expression in E. coli” value read?
The value was “not soluble”.

For “MMQPLQLSAGGFAVVLGTNEIASAVAVHLHREGCCVVMSHDPFPPVIRRKMAFHDALYGDEVTVEGVRGERVDHATQIFKALRRSDNVLVSWLALPDLLPIGAVDVLIDARMQKHRVTPDLRGLARISVGLGPGFSTAVNCDVAIETRPGRSGLIVGAGWTDAADGVASPLGGVGAERFEYSQASGRWRTAVEIGSRVFSGFTIGHLGGVPVRAPCDGILRGVVRDGQDVPQGVKLLEVDSRGRHAQWTGIDDRGRGIAKAVLRAVQPQAEIRTSYAAQPIAVFLEHHHHHH”, which “soluble on expression in E. coli” value is on record?
Its value is “not soluble”.

For “MMRKVALFGFSLLLLAGCSSSDSSLPLFSSLPKGVTLVEEVKAEPGKVMIPYSKYRLDNGLTVILSPDDSDPLVHVDVTYHVGSAREEIGKSGFAHFFEHMMFQGSKHVGDQQHFRLITEAGGSLNGTTNRDRTNYFETVPANQLEKMLWLEADRMGFLLDAVSQRKFEIQRDTVKNERAQNYDNRPYGLMWEKMGEALYPEGHPYSWQTIGYVSDLDRVDVNDLKAFFLRWYGPNNAVLTIGGDLDVKQTLAWVQKYFGSIPKGPDVVDAPKQPARLSEDRFITLEDRVQQPMLLIGWPTQYWGAEDQVALDALASALGSGNNSLLYQELVKTQKAVDAGAFQDCAELACTFYVYAMAPSGAKGKLAPLYQETLQVLEKFKQQGVSASRLEQIIGSEEASAVFALESVKGKVSQLAANQTFFDQPDRIESQLEKIRAVTPESVKQVFTRYLDGQPKVTLSVVAKGKTDFAVRPATFITPERQLPEYQKIGDEQLAYREVKDSFDRSQMPQVAQAVQPRLPKLYDVYFDNGVQLLGTQTRETPTVLIEIQLPAGERQVAMGKEGLANLTASLLQEGSQNRSAEAIQAQLDKLGSSIQVVAGAYSTSIVVSSLKKNLPETLQISQEMLLKPAFKQSDFARLQQQMLQGVVYQHQQPSWLASQATRQVLWGESLFARSGDGTQASISALTLKDVKQFYRQHYTPHGAQIAVVGDISAREIRQQLQFIADWKGEAAPLINPQVVPTLTKQKIYLVDKPGAPQSIIRMVRKGLPFDATGELYLTQLANFNLAGNFNSRINQNLREDKGYTYGAGSYFASNREIGAIVFNAPVRADVTVEAIQEMIKEMHHFSQAGMSEEEMKFLRLAVGQQDALMYETPAQKAQLVSSILTYSLDRDYLQQRNEIVKSVDRSTLNELAAKWFNPEDYQIIVVGDAKRLKPQLEKLGIPLEELEIIR”, which “soluble on expression in E. coli” value is on record?
Its value is “not soluble”.

For “MMSAVERRMEIVNVVNQDGKARVEDLAARFDVSSVTIRSDLSFLEKNGYVVRSHGAAIPNTGVIAELTVHEKRHQNIGTKSSIGYAAAQLIENGDTVILDSGTTTREIASNLKSLEQAVVMTNGLDVAMELASASGIEVLMSGGVLRKKALSFSGSQAEASLKNYRFDKVFLGVDGFDLRSGITTHNEQEASLNRLMCDISEQVIAVADSTKFGKRSCHMIREFGNIDILVTDSDIPEEYLQGLREMKVEVIIVEKEK”, which “soluble on expression in E. coli” value is on record?
The value was “not soluble”.

For “MMSNRSDFIVPDEAAVKRAASVNFHLEPLRPWLDDPQITEVCVNRPGEVFCERASAWEYYAVPNLDYEHLISLGTATARFVDQDISDSRPVLSAILPMGERIQIVRPPACEHGTISVTIRKPSFTRRTLEDYAQQGFFKHVRPMSKSLTPFEQELLALKEAGDYMSFLRRAVQLERVIVVAGETGSGKTTLMKALMQEIPFDQRLITIEDVPELFLPDHPNHVHLFYPSEAKEEENAPVTAATLLRSCLRMKPTRILLAELRGGEAYDFINVAASGHGGSITSCHAGSCELTFERLALMVLQNRQGRQLPYEIIRRLLYLVVDVVVHVHNGVHDGTGRHISEVWYDPNTKRALSLQHSEKT”, which “soluble on expression in E. coli” value is on record?
The value was “soluble”.

For “MMTLIRITSADDSRLNRLIPLYEESFPESERRKIGQLKRMIENHAPMYFNAIECDGELSGMFVYWDMGDFYYLEHLAVFPEMRNKKIGQQVLDYVAEHLKGVRLLEVEPTEDEMTTRRVNYYRRNGYEVLDKTYVQPSYHALEDACPLWIMGSEDSPRLAEQVERIKEEVYRQQVG”, which “soluble on expression in E. coli” value is on record?
Its value is “not soluble”.

With “MMTSAFAPSEQSLVASPQDLPAVDVAIVGAGIVGLSLACALRNSGLAIALIEATPYRRENTKGQAYALHQVSRYFFEEIGVWDKLMPHVQPFEVVQLSDERFPLTVHFSPADLGTEALGYVGEHSAIAETLQSVLQSAGNVTFYCPWRVVTNEVHGDRAQLTLISGDPGEPKVAHLAARLVVAADGGKSPLRQQMGIEPKGWQYPQSCVVATLDVAHPQPVIAYERFWPTGPMGVLPLPRNRYRVVWTLPHPEAEAVAALDDRSFLATLQPYLDPQMAEITAVGDRFVFPAQFMQVNSYAADRFVVIGDAAHRCHPVGGQGLNLGLRDVWNLAQQILASPLEEIGDRRHLMHFHRQRWWQNVLTLAFTDFLNRLFSNTGWPLVAVRRCGLGLLCLLPPLKRLLLRFMAGLLLPLPGDREFPRGRLEHHHHHH” as the sequence, how does the “soluble on expression in E. coli” value read?
Its value is “not soluble”.

With “MMTTSLFNNDDLNQLESKGITPEEAMRQVEALRYGFPYPNIIAPASLENGIMRLDEDDKSAYLLEWDRYLNSPNCNVVKFVPASGAASRMFKDLYNFLDADYNEPTTDAEKAFFAHLTRFAFYDSLNETCLRNAWRTVPKLIASKEYKTVVENLLYPKGLNYGNLPKGLLLFHLYGKETRTPTEEHLAEGALYERSGTRQVKVHFTVSPEHIEEFKNNIDKRQRFLEDEYCIRYEVSFSVQDSSTDTLALTPEGELFRLENGELLFRPGGHGALIRNLQETNADIVFIKNIDNVVPDFLKCDTIIYKKLIAGVLVKAREHIFNYLQLLEKPKVVHAQLMEIVDFLRYNFCIEISNIDLMEDKDLLELLRRKLDRPIRVCGMVRNQGEPGGGPFIIREADGSSSLQILESTQIDMSDPQKRAIFEQGSYFNPVDLVCSLRDYKGEPFNLESFVNPKTAFISEKSKDGRKLLALERPGLWNGAMDDWNTIFIEVPISTFAPVKTVNDLLRPEHQPCQS” as the sequence, how does the “soluble on expression in E. coli” value read?
Its value is “soluble”.

Which “soluble on expression in E. coli” value does the source give for “MMVKSFTPPSSQSSVQDSGNSKLSVIEVVPENGIGALVSSSPTILRTTQAEPEILRYDPVEILAHYENKLLQVLRRTLAVLQPTLSYVFGLWLDNKRGVKVKNDRSRAIQLRELLTKLGPAYIKIGQALSTRPDLVPPVYLEELTRLQDQLPAFPNEIAYQFIEEELGAKPEEIYAEVSPEPIAAASLGQVYKGKLKTGEEVAIKVQRPDLREIITIDLYILRRLAGWVQRKVKRVRSDLVGILDELGDRIFEEMDYIHEGENAERFFELYGHIQDIYVPKIYWEYTNRRVLTMEWIKGIKLTQTSEIKELGIDARYLIEVGVQCSLRQLLEHGFFHADPHPGNLLATFDGKLAYLDFGMMSEIRPPQRYGLIEAIVHVVNRDFDSLAQDYVKLEFLSPETDLTPIIPAFGKVFANAQGASVAELNIKSITDDLSALMYEYPFRVPPYYALIIRSLVTLEGIAIYIDPNFKVLSEAYPYVSKRLLTDPADELRTSLRDLLFKMVNSGGIV” here?
The value was “not soluble”.
